doi:10.1101/2024.05.28.596271

What was measured:
[1] = target: FAM-labeled integrin β3 peptide (human); test: fluorescence polarisation
[2] = target: FITC-labeled integrin β2 peptide representing both the JM and the NPxY/F regions (human); test: fluorescence polarisation

“talin head protein THD405d (residues 1-405, lacking F1-loop) (from UniProt P26039 1-405) (domain or fragment)” showed a Kd [1] of 4.4 µM and a Kd [2] of 31.9 µM.
“THD(D397K) (from UniProt P26039 1-405) (domain or fragment)” was tested, and the fold increase in affinity over wild-type THD [1] was 2 fold.
For “THD(D397R) (from UniProt P26039 1-405) (domain or fragment)”, the fold increase in affinity over wild-type THD [1] was 2 fold and the Kd [2] was > 100 µM.
